Reference: article PMC12583513, “Deciphering the molecular mechanism of the bacterial division motor TolQRA” (Cell Discovery, 2025)
Where “and” joins values, the source holds several entries; their conditions need not be identical. Identical values can stand only once.

Experiments:
TolA (residues 34–421) = target: T1, TolA (residues 34–421) (Escherichia coli K12, UniProt P19934 34-421, RED-tris-NTA dye on the His tag); test: MST; TolA labelled with RED-tris-NTA dye, fixed at 50 nM; TolR titrated in 16 points from 150 μM to 4.58 nM; 20 mM HEPES pH 7.8, 150 mM NaCl; 25 °C; Monolith NT.115; details: both partners purified
T1 construct: TolA of Escherichia coli K12, residues 34-421, amplified from genomic DNA into a modified pET28a; also called soluble TolA; TolA with the periplasmic loop TolA_β; source: E. coli BL21(DE3), purified (Ni-NTA column, desalting); not shown: 8x His, C-terminal, kept
T1 sequence (looked up): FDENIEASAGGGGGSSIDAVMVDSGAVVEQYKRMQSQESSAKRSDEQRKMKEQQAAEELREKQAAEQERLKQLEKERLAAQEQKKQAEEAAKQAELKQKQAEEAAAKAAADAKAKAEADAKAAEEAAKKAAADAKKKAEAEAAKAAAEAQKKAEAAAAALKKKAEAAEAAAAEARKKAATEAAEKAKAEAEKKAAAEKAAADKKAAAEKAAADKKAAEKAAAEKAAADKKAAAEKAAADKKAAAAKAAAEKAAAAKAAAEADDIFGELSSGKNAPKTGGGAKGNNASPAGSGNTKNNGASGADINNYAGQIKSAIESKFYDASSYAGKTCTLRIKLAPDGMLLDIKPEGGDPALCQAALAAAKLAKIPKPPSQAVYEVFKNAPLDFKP

TolA (residues 58–421) = target: T2, TolA (residues 58–421) (Escherichia coli K12, UniProt P19934 58-421, RED-tris-NTA dye on the His tag); test: as above; details: both partners purified
T2 construct: TolA of Escherichia coli K12, residues 58-421, amplified from genomic DNA into a modified pET28a; also called soluble TolA without TolA_β; source: E. coli BL21(DE3), purified (Ni-NTA column, desalting); not shown: 8x His, C-terminal, kept
T2 sequence (looked up): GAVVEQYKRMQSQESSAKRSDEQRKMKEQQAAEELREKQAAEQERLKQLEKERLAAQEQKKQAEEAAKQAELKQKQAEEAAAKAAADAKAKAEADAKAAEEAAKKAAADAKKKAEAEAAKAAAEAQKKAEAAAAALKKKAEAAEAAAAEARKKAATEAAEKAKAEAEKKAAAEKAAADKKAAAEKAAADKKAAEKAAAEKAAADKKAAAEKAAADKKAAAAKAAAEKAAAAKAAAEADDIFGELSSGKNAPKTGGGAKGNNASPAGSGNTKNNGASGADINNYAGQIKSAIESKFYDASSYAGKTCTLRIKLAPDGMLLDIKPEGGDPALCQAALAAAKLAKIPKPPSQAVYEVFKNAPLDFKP

[1] = target: the molecule itself; test: cryo-EM structure; TolQRA co-expressed, purified by the His tag of TolA in DDM/CHS then LMNG/CHS, reconstituted in MSP1D1 nanodiscs with E. coli total lipid extract; 20 mM Tris pH 7.8, 150 mM NaCl; classes with one, two or three TolA

| Binder | binding result (TolA (residues 34–421)) | binding result (TolA (residues 58–421)) | stoichiometry N [1] |
| --- | --- | --- | --- |
| TolR (residues 60–133) (domain or fragment, Escherichia coli K12, UniProt P0ABV6 60-133, looked up, TolR of Escherichia coli K12, residues 60-133 of the periplasmic domain, amplified from genomic DNA into a modified pET28a; also called TolR^60–133; TolR lacking both β1/α1 and β6; source: E. coli BL21(DE3), purified (Strep-Tactin column, desalting)) DNPPVIVEVSGIGQYTVVVEKDRLERLPPEQVVAEVSSRFKANPKTVFLIGGAKDVPYDEIIKALNLLHSAGVK | binds | binds |  |
| TolQ (natural protein, Escherichia coli (strain K12), TolQ of Escherichia coli strain K12; the operon encoding TolQRA was cloned into pTRC99a; no tag on TolQ in this construct; The whole tolQRA operon was cloned, so the whole gene is implied; a minor hexameric class (six TolQ subunits) was also seen; also called TolQ1; TolQ2; source: E. coli C43 (DE3), co-expressed from pTRC99a-TolQR(Strep)A(His), purified as complex (HisTrap + Superdex 200, …)) MTDMNILDLFLKASLLVKLIMLILIGFSIASWAIIIQRTRILNAAAREAEAFEDKFWSGIELSRLYQESQGKRDNLTGSEQIFYSGFKEFVRLHRANSHAPEAVVEGASRAMRISMNRELENLETHIPFLGTVGSISPYIGLFGTVWGIMHAFIALGAVKQATLQMVAPGIAEALIATAIGLFAAIPAVMAYNRLNQRVNKLELNYDNFMEEFTAILHRQAFTVSESNKG |  |  | 5 and 6 |
